Drawing on publication PMC7681980, this text covers dH for one substance.

Like-named read-outs stand apart in the source and are kept apart here.

In assay [1] the target is type I collagen extracted from male Wistar Hannover rat tail tendons (dialyzed) (rat (Wistar Hannover, extracted from tail tendons)) (UniProt P02454). Briefly: ITC; NaOH (4.6 uM in ultrapure water) titrated in 24 aliquots into 950 uL type I collagen (0.2 mg/mL in 0.33% v/v acetic acid), 30.0 ± 0.1 °C, stirred at 300 rpm; self-assembly (fibrillogenesis) triggered by the rise in pH; areas corrected by the acid-base control titration; enthalpy of self-assembly at the isoelectric point; at least triplicate. (ITC needs no label: the signal is the heat of the interaction.)

For assay [2] the target is unchanged. The description is as above. The source holds these as a separate data set.

Chain of type I collagen extracted from male Wistar Hannover rat tail tendons (dialyzed), P02454 152-1207; P02466 86-1125 (complex; other documents disagree on this pair) (P02454 152-1207): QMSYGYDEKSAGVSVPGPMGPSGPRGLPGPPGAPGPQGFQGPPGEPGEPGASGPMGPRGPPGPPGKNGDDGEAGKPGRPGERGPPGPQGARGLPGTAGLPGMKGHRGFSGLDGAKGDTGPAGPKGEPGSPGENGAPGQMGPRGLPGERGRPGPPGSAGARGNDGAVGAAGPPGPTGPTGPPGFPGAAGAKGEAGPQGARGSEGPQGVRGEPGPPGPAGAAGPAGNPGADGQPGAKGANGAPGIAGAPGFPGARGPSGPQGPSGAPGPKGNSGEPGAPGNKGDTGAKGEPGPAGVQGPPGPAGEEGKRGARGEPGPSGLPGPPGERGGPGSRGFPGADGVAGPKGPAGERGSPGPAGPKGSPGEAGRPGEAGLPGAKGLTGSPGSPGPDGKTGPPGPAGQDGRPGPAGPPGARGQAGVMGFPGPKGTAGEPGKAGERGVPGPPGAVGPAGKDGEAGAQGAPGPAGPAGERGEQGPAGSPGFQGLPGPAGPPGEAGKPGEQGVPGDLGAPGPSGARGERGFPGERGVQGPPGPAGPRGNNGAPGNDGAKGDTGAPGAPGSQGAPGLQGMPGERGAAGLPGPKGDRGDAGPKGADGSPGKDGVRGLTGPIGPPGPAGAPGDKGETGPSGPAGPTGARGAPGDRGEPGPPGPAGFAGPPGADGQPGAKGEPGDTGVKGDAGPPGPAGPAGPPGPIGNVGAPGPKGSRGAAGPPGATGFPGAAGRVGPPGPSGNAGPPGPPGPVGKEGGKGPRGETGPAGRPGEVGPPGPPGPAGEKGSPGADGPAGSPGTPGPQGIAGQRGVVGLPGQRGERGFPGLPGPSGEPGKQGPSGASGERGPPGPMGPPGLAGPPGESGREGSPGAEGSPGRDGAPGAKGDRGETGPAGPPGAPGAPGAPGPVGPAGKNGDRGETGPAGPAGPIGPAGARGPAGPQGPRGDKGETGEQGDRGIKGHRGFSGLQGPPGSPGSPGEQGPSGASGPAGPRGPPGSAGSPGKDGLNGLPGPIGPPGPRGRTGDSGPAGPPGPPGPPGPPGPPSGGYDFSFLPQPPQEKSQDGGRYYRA
Chain of type I collagen extracted from male Wistar Hannover rat tail tendons (dialyzed), P02454 152-1207; P02466 86-1125 (complex; other documents disagree on this pair) (P02466 86-1125): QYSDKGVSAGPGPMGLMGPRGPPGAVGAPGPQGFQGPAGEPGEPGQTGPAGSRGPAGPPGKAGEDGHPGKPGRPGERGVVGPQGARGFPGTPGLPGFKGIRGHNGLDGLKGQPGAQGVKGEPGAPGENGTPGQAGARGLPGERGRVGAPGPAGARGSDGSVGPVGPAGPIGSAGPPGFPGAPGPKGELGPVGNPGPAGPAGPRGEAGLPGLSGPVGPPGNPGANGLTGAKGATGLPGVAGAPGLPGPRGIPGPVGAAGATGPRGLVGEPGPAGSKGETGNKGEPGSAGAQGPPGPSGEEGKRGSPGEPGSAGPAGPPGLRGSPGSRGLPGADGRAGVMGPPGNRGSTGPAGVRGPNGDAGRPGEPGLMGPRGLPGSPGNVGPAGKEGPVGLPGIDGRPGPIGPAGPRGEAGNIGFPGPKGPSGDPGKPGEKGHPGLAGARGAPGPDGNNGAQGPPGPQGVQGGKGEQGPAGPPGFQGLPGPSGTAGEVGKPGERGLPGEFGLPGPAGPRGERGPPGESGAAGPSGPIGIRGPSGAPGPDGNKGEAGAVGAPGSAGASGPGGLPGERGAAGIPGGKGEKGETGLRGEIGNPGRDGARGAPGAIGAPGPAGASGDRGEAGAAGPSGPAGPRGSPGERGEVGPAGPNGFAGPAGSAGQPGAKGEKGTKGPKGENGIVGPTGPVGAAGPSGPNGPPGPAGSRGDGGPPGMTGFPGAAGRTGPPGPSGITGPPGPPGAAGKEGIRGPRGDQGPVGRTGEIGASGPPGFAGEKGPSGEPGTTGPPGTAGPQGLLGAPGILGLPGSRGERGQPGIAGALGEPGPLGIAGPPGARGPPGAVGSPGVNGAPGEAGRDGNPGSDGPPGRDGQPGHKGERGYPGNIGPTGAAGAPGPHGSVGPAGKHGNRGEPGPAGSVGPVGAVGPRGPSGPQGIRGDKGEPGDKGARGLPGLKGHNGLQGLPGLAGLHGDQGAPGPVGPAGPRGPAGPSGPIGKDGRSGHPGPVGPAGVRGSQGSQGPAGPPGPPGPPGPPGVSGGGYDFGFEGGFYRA

With “type I collagen extracted from male Wistar Hannover rat tail tendons (dialyzed), P02454 152-1207; P02466 86-1125 (complex; other documents disagree on this pair)”, the dH was found to be 0.000784 kcal/mol in assay [1] and 0.000782 kcal/mol in assay [2].
